The record followed here is patent publication US20210107981A1 (SUTRO BIOPHARMA, published 2021).

Assay [1] addresses T1, Human PD-1 (ACROBiosystems, Inc., Catalog No. PD1-H5221) (human, UniProt Q15116 25-167).
T1 construct: Bought recombinant protein; also called huPD1-His; PD-1-his; not shown: His tag of the bought protein (huPD1-His)
As to the kind of experiment: competition ELISA on coated PD-1; competitor PD-L1-Fc (ACROBiosystems). The procedure: PD-1 (ACROBiosystems, Inc.) was adsorbed on 384-well white Maxisorp® plates (Nunc) at 2 μg/mL in sodium bicarbonate buffer (pH 8.9) and incubated at 30° C. for 1 hour or overnight at 4° C. The plate was washed 3 times with PBS pH 7.4 with 0.05% Tween20 and blocked with 2% bovine serum albumin (BSA) in PBS pH 7.4+0.1% Tween20 for 1 hour at 30° C.
After a 1 hour incubation at 30° C., the plate was washed and incubated with HRP-conjugated anti-mouse Fc (Jackson Laboratories), followed by detection with SuperSignal™ Pico Chemiluminescent Substrate (Thermo Pierce). Luminescence was detected on a SpectraMax® M5 plate reader (Molecular Devices).

The target of assay [2] is T2, human PD-1 expressed on the cell surface (CHO-PD1 cells) (human, UniProt Q15116 25-288).
T2 construct: Also used here as the target for native PD-1 on human PBMC / T cells in the functional (IFN-g) assays; also called CHO cell line overexpressing human PD-1; Cell-Surface Human PD-1 antigen
As to the kind of experiment: cell-based FACS competition on CHO-PD1 cells; competitor rhPDL1-Fc. The procedure: (§1) CHO-PD1 cells were cultured in RPMI with 10% FCS Pen/Strep and Gln and split every 3-4 days at 10⁵ cells/ml. Cells were washed 2× with FACS buffer (PBS w/2% FCS), […] at a final concentration of 1×10⁶ cells/ml and seeded at […] per well on 96 well polypropylene plates. Plates were spun at 1500 rpm for 5 minutes and cell pellets were suspended in 50 μL FACS buffer containing 8 point 1:3 dilutions (2× concentrated) of anti-PD-1 antibody variants, starting from high concentration of −200 nM. […] Cell were then incubated on ice for 1 hr, washed with FACS buffer and incubated for 1 hr on ice with 50 μl FACS buffer containing 2.5 μg/ml R-phycoerythrin-conjugated anti-human IgG (Jackson ImmunoResearch). Cells were then washed 2× with FACS buffer and fixed for 10 minutes in 200 μl PBS with 2% PFA prior to acquisition. Samples were acquired using a Becton Dickinson LSRII FACS.

Assay [3] concerns the target T1, Human PD-1 (ACROBiosystems, Inc., …). As to the kind of experiment: ELISA, binding of human PD-1 (coated).
In assay [4] the target is T2, human PD-1 expressed on the cell …. As to the kind of experiment: FACS cell binding, CHO cell line overexpressing human PD-1. The method, then:
Antibodies with expression levels >250 nM and mouse IgGs from hybridomas were tested in a fluorescence-activated cell sorting (FACS) cell-binding assay. Chinese Hamster Ovary (or CHO) Cells stably expressing the human target molecule PD-1 on the cell surface (CHO-PD1) were used to screen for binding. Parental CHO cells were used as a negative control to determine background-binding levels. Parental CHO cells and CHO-PD1 cells were cultured in RPMI w/10% FCS penicillin/streptomycin (Pen/Strep) and glutamine (or Gln) and split every 3-4 days at 10⁵ cells/mL.
A mix of parental CHO cells and CHO-PD1 cells was prepared as follows: Parental CHO cells were washed 2× in PBS then incubated in PBS containing 1 μM CellTrace™ Oregon Green488® (Life Technologies) at 37° C. for 30 minutes. Cells were then washed 2× with RPMI w/10% fetal calf serum (FCS), washed 2× with FACS buffer (PBS w/2% FCS), suspended thoroughly in ice-cold FACS buffer at a final concentration of 2×10⁶ cells/mL and kept on ice. CHO-PD1 cells were similarly washed with FACS buffer and kept on ice at 2×10⁶ cells/mL. Parental CHO cells and CHO-PD1 cells were then mixed to obtain a 1:1 cell suspension and seeded at 100 μL per well on 96 well polypropylene plates. Plates were spun at 1500 rpm for 5 minutes and cell pellets were suspended in 50 μL FACS buffer containing 6-12 point dilutions of anti-PD-1 variants starting from concentrations of −100-200 nM antibody, dispensed using BioMek FX (Beckman Coulter). Cells were then incubated on ice for 1 hr, washed with FACS buffer and incubated for 1 hr on ice with 50 μL FACS buffer containing 2.5 μg/ml R-phycoerythrin-conjugated goat anti-Human IgG (Jackson ImmunoResearch) or AF647-conjugated goat anti-mouse IgG (Life Technologies) dispensed using BioMek FX (Beckman Coulter). Cells were then washed 2× with FACS buffer and fixed for 10 minutes in 200 μL PBS with 2% paraformaldehyde (PFA) prior to fluorescence detection. Samples were acquired using a Becton Dickinson LSRII FACS. Mean Fluorescence Intensity of PD-1 antibody binding was analyzed using FlowJo® software (Tree Star, Inc.).

Assay [5] shares this target. Description: cell-based FACS competition on CHO-PD1 cells; competitor rhPDL2-Fc. The procedure: as §1
Assay [6] has as its target T1, Human PD-1 (ACROBiosystems, Inc., …). As to the kind of experiment: SPR (Biacore). For orientation: In SPR one partner is held on a chip, and binding of the other changes the refractive index at the surface.
The target in assay [7] is T3, cynomolgus PD-1 (ACROBiosystems, Inc., Catalog No. PD1-H5254) (cynomolgus, UniProt B0LAJ3 25-167).
T3 construct: also called cyno PD-1
Description: SPR (Biacore).

T1 sequence (Q15116 25-167 limits assumed): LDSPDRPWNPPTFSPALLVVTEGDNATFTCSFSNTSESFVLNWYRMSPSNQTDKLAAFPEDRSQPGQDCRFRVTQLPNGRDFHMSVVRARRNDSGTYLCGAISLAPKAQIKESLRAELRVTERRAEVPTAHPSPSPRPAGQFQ
T2 sequence (Q15116 25-288 limits assumed): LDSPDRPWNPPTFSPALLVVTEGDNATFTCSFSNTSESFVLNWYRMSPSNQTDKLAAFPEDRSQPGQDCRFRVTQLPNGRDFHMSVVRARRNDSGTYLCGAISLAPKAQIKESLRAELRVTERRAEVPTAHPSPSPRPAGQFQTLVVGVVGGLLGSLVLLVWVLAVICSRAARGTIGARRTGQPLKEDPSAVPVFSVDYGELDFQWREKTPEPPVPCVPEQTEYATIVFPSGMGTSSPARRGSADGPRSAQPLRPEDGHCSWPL
T3 sequence (B0LAJ3 entry or part of it limits assumed, form in doubt): as the sequence (Q15116 25-167 limits assumed) above, with D2E, P10A, V19L, T35A, Q75R counted along it

B1: 1B10 murine hybridoma IgG (antibody, V domains shown)
VH: DVQLQESGPGLVKPSQSLSLTCTVTGHSITSDYAWNWIRQFPGNKLEWMGYISYSGRTSYNPSLTSRISITRDTSKNQFFLQLNSVTTEDTATYYCARGYALDYWGQGTSVTVSS
VL: QIVLSQSPAILSASPGEKVTMTCRTSSSVNYMHWFQQKPGSSPKPWIYATSKLASGVPARFSGSGSGTSYSLTISRVEAEDAATYFCQQWISDPWTFGGGTKLEIK
notes: Mouse IgG from hybridoma; also called m1B10
For B1, the half-maximal inhibitory concentration (IC50) (usually the point on the concentration scale where inhibition reaches its midpoint) in assay [1] is 9.47 nM; in assay [2], 5.96 nM; in assay [5], 0.56 nM. The EC50 – broadly, the concentration giving half of the maximal effect – in assay [3] came to 1.71 nM. Besides, the Kd (usually the constant that tells how readily two partners part at equilibrium) in assay [4] was 3.2 nM; in assay [6], 10.4 nM; in assay [7] it was 2.56 nM.

B2: 4B10 murine hybridoma IgG (antibody, V domains shown)
VH: EVKLVESGGGLVKPGGSLKLSCAASGFTFSTYGMSWVRQTPEKRLQWVATISGGGSNTYYSDSVKGRFTISRDNAKNNLYLQMSSLRSEDTALYYCARQRDSAWFASWGQGTLVTVSA
VL: not shown
notes: Mouse IgG from hybridoma; also called m4B10
B2: the concentration for half-maximal inhibition (IC50) in assay [1] worked out at 1.43 nM; in assay [2] it was 1.99 nM; in assay [5], 0.01 nM. The EC50 in assay [3] came out at 0.47 nM. Besides, the Kd in assay [4] is 1.39 nM; in assay [6], 0.913 nM; in assay [7], 0.561 nM.

B3: 10B4 murine hybridoma IgG (antibody, V domains shown)
VH: QVQLQQSGAELMKPGASVKMSCKTTGYIFSSYWIGWVKQRPGHGLEWIGKIFPGSGSADYNENFKGKATFTVDTSSNTAYMQLSSLTSEDSAVYYCARGYGNYLYFDVWGAGTTVTVSS
VL: NIVMTQTPKFLLVSAGDRITITCKASQSVSDDVAWYQQKPGQSPKLLISYAFKRYIGVPDRFTGSGYGTDFTFTISTVQAEDLAVYFCQQNYNSPYTFGGGTKLELKR
notes: Mouse IgG from hybridoma; also called m10B4
In the case of B3, the IC50 came out at 1.32 nM in assay [1], 2.53 nM in assay [2] and 0.18 nM in assay [5]. Also, in assay [3], a half-maximal response (EC50) required 0.59 nM. Further, the Kd was found to be 1.34 nM in assay [4], 0.252 nM in assay [6] and 0.195 nM in assay [7].

B4: 1E9 murine hybridoma IgG (antibody, V domains shown)
VH: EVKLVESGGGLVSPGGSLKLSCAASGFTFSTFGMSWVRQTPEKRLEWVATISGGGSDTYYPDSVQGRFIISRYNAKNNLYLQMNSLRPEDTALYYCARQGYDVYSWFAYWGQGTLVTVSA
VL: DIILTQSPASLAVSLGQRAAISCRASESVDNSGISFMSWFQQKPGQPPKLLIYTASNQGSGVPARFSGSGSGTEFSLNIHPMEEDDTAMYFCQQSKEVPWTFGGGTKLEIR
notes: Mouse IgG from hybridoma; also called m1E9
B4: the IC50 was 0.89 nM in assay [1], 5.86 nM in assay [2] and 0.58 nM in assay [5]. The molecule also yielded a concentration for a half-maximal effect (EC50) in assay [3] of 0.33 nM. Moreover, the Kd in assay [4] was found to be 2.9 nM; in assay [6] it was 9.9 nM; in assay [7] it was 2.54 nM.
